Substrate: CC(=O)SCCNC(=O)CCNC(=O)[C@H](O)C(C)(C)COP(=O)(O)OP(=O)(O)OC[C@H]1O[C@@H](n2cnc3c(N)ncnc32)[C@H](O)[C@@H]1OP(=O)(O)O
Assay: DTNB colorimetric assay of CoA release
Format: biochemical, Cryptosporidium parvum
Conditions: 2000 μM GlcN6P fixed, 25 mM Tris-HCl, 150 mM NaCl, pH 7.2, room temperature
Description: DTNB colorimetric assay of CoA release on CpGNA1

B1: CpGNA1 (Cryptosporidium parvum Iowa II) (protein)
chain: MISSFEVRKATIDDYFELRNLICDVTRCTETLSREQAEERFRYNTYHPYCLVDTENGRIVGYAGFYIIPHLGRKNDSRIEHVIISKEYRNRGLGRLLCKQIIEDAKNKFNCGRIDLTVESHIAKKLYSSLEFEKVNTEVMRNSFLDLTPKSD
notes: N-terminal GST tag kept (not cleaved), pGEX-6P-1, codon-optimized
In the case of B1, the Km is reported as 531 ± 80.33 µM.

From paper PMC7587441, “Plasmodium falciparum Apicomplexan-Specific Glucosamine-6-Phosphate N-Acetyltransferase Is Key for Amino Sugar Metabolism and Asexual Blood Stage Development” (mBio, 2020)
